Test system: TO-N3-2 (biotin conjugate)
Assay: pull-down binding Z-score (relative to library population); higher = stronger binding
Details: RNA library: Library-2
Method in brief: (§1)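 Streptavidin beads with 100 pmol of biotin-conjugated small molecule were incubated for 60 min at 25 °C with 1 μg of heat-folded Cy5- or Cy3-end-labelled RNA library in phosphate/NaCl/KCl buffer. Bound RNA was eluted in hot SDS after three washes and hybridised to a DNA barcode microarray at 55.5 °C for 20 h. Each binding score is a library-referenced Z-score, computed after beads-only subtraction and a trimmed mean of barcoded replicate probes.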

Q: “CAACUGAAAUCUAUCAGGCCGGUAGCACACCUUGUAAUGGUGUUGAAGGUUUUAAUUG [SHAPE_invivo_SARS-CoV-2_Motif_433]” was tested. Which “pull-down binding Z-score” value did it give?
A: 0.0571

Q: With CAACUUACAAAUUAAAUGUUG as the sequence, how does the “pull-down binding Z-score” value read?
A: -1.06

Q: With “CAAGAGAAGUGGGUUUUGUCGUGCCUGGUUUGCCUGGCACGAUAUUACGCACAACUAAUG” as the sequence, how does the “pull-down binding Z-score” value read?
A: -0.297

Q: For “CAAGGACCUGCCUAAAGAAAUCACUGUUGCUACAUCACGAACGCUUUCUUAUUACAAAUUGGGAGCUUCGCAGCGUGUAGCAGGUGACUCAGGUUUUG [DMSMaPseq_invitro_SARS-CoV-2_Motif_486]”, which “pull-down binding Z-score” value is on record?
A: 0.921

Q: Which “pull-down binding Z-score” value does the source give for “CAAGGCUAUUGAUGGUGGUGUCACUCGUGACAUAGCAUCUACAGAUACUUG [SHAPE_invivo_SARS-CoV-2_Motif_176]” here?
A: 0.281

Q: Which “pull-down binding Z-score” value does the source give for CAAGGGUACACACCACUG here?
A: 0.0749

Q: How did the “pull-down binding Z-score” value turn out when “CAAUACAUAAGAAAGCUACAUGAUGAGUUAACAGGACACAUGUUAGACAUGUAUUCUGUUAUGCUUACUAAUGAUAACACUUCAAGGUAUUG” was run?
A: -0.157

Q: “CAAUGUGUGAUAUCAGACAACUACUAUUUGUAGUUGAAGUUGUUGAUAAGUACUUUG [DMSMaPseq_invitro_SARS-CoV-2_Motif_268]” was tested. Which “pull-down binding Z-score” value did it give?
A: -0.156

Q: With “CACAAGGCAGAUGGGCUAUAUAAACGUUUUCGCUUUUCCGUUUACGAUAUAUAGUCUACUCUUGUG” as the sequence, how does the “pull-down binding Z-score” value read?
A: -0.455

Q: For “CACAGAAAAGUACUGUG [SHAPE_invivo_SARS-CoV-2_Motif_52]”, which “pull-down binding Z-score” value is on record?
A: -0.279

Q: “CACAUCAGUAGUCUUACUCUCAGUUUUGCAACAACUCAGAGUAGAAUCAUCAUCUAAAUUGUG [DMSMaPseq_invitro_SARS-CoV-2_Motif_209]” was tested. Which “pull-down binding Z-score” value did it give?
A: -0.741

Q: With “CACAUCUAGGUUUCGUCCGGGUGUG [SARS-CoV-2-Conserved-Structured-16_Interval-158-277_Motif_2]” as the sequence, how does the “pull-down binding Z-score” value read?
A: -0.319

Q: For CACAUGAAGGUAAAACAUUUUAUGUUUUACCUAAUGAUG, which “pull-down binding Z-score” value is on record?
A: -0.256

Q: For “CACCAAGACUACUUACUGGUG [IAV_invivo_PB1_2_Motif_22+IAV_invivo_PB1_2_Motif_22]”, which “pull-down binding Z-score” value is on record?
A: -1.37

Q: Which “pull-down binding Z-score” value does the source give for “CACCACUUAACCGAAAUUAUGUCUUUACUGGUUAUCGUGUAACUAAAAACAGUAAAGUACAAAUAGGAGAGUACACCUUUGAAAAAGGUGACUAUGGUG” here?
A: -0.309

Q: “CACCAUCUGGUG [DMSMaPseq_invitro_SARS-CoV-2_Motif_188]” was tested. Which “pull-down binding Z-score” value did it give?
A: -1.15

Q: How did the “pull-down binding Z-score” value turn out when “CACCCGCGAAGAAGCUAUAAGACAUGUACGUGCAUGGAUUGGCUUCGAUGUCGAGGGGUG” was run?
A: 0.0562

Q: With “CACGUCCAACUCAGUUUGCCUGUUUUACAGGUUCGCGACGUG” as the sequence, how does the “pull-down binding Z-score” value read?
A: 0.192

Q: CACUAAAAAGUGGAAAUACCCACAAGUUAAUG was tested. Which “pull-down binding Z-score” value did it give?
A: -0.609

Q: How did the “pull-down binding Z-score” value turn out when “CACUCAAAGGCGGUGCACCAACAAAGGUUACUUUUGGUGAUGACACUGUGAUAGAAGUG [DMSMaPseq_invitro_SARS-CoV-2_Motif_50]” was run?
A: -0.0256

Q: With “CACUGUACAGUCUAAAAUGUCAGAUGUAAAGUG [DMSMaPseq_invitro_SARS-CoV-2_Motif_208]” as the sequence, how does the “pull-down binding Z-score” value read?
A: -0.645

Q: How did the “pull-down binding Z-score” value turn out when “CACUUAUCUUAGCCUACUGUAAUAAGACAGUAGGUGAGUUAGGUG” was run?
A: -1.07

Q: How did the “pull-down binding Z-score” value turn out when CACUUCUUUCUUUGAGAGAAGUG was run?
A: -1.42

Q: For CAGACAACACAUUUGUGUCUG, which “pull-down binding Z-score” value is on record?
A: -1.8

Q: For “CAGACUUUAUGAGUGUCUCUAUAGAAAUAGAGAUGUUGACACAGACUUUGUGAAUGAGUUUUACGCAUAUUUGCGUAAACAUUUCUCAAUGAUGAUACUCUCUG”, which “pull-down binding Z-score” value is on record?
A: -1.1

Q: For “CAGACUUUGUGAAUGAGUUUUACGCAUAUUUGCGUAAACAUUUCUCAAUGAUGAUACUCUCUG”, which “pull-down binding Z-score” value is on record?
A: -0.783

Test system: TO-3-N3-2 (biotin conjugate)
Assay: as above
Details: RNA library: Library-2
Method in brief: as §1

Q: “CAACUGAAAUCUAUCAGGCCGGUAGCACACCUUGUAAUGGUGUUGAAGGUUUUAAUUG [SHAPE_invivo_SARS-CoV-2_Motif_433]” was tested. Which “pull-down binding Z-score” value did it give?
A: -0.292

Q: For CAACUUACAAAUUAAAUGUUG, which “pull-down binding Z-score” value is on record?
A: -0.152

Q: For “CAAGAGAAGUGGGUUUUGUCGUGCCUGGUUUGCCUGGCACGAUAUUACGCACAACUAAUG”, which “pull-down binding Z-score” value is on record?
A: -0.209

Q: How did the “pull-down binding Z-score” value turn out when “CAAGGACCUGCCUAAAGAAAUCACUGUUGCUACAUCACGAACGCUUUCUUAUUACAAAUUGGGAGCUUCGCAGCGUGUAGCAGGUGACUCAGGUUUUG [DMSMaPseq_invitro_SARS-CoV-2_Motif_486]” was run?
A: -0.309

Q: For “CAAGGCUAUUGAUGGUGGUGUCACUCGUGACAUAGCAUCUACAGAUACUUG [SHAPE_invivo_SARS-CoV-2_Motif_176]”, which “pull-down binding Z-score” value is on record?
A: -0.243

Q: With CAAGGGUACACACCACUG as the sequence, how does the “pull-down binding Z-score” value read?
A: -0.131

Q: With “CAAUACAUAAGAAAGCUACAUGAUGAGUUAACAGGACACAUGUUAGACAUGUAUUCUGUUAUGCUUACUAAUGAUAACACUUCAAGGUAUUG” as the sequence, how does the “pull-down binding Z-score” value read?
A: 0.625

Q: Which “pull-down binding Z-score” value does the source give for “CAAUGUGUGAUAUCAGACAACUACUAUUUGUAGUUGAAGUUGUUGAUAAGUACUUUG [DMSMaPseq_invitro_SARS-CoV-2_Motif_268]” here?
A: -0.487

Q: For “CACAAGGCAGAUGGGCUAUAUAAACGUUUUCGCUUUUCCGUUUACGAUAUAUAGUCUACUCUUGUG”, which “pull-down binding Z-score” value is on record?
A: -0.5

Q: How did the “pull-down binding Z-score” value turn out when “CACAGAAAAGUACUGUG [SHAPE_invivo_SARS-CoV-2_Motif_52]” was run?
A: 0.427

Q: How did the “pull-down binding Z-score” value turn out when “CACAUCAGUAGUCUUACUCUCAGUUUUGCAACAACUCAGAGUAGAAUCAUCAUCUAAAUUGUG [DMSMaPseq_invitro_SARS-CoV-2_Motif_209]” was run?
A: -0.352

Q: Which “pull-down binding Z-score” value does the source give for “CACAUCUAGGUUUCGUCCGGGUGUG [SARS-CoV-2-Conserved-Structured-16_Interval-158-277_Motif_2]” here?
A: -0.459

Q: With CACAUGAAGGUAAAACAUUUUAUGUUUUACCUAAUGAUG as the sequence, how does the “pull-down binding Z-score” value read?
A: -0.743

Q: For “CACCAAGACUACUUACUGGUG [IAV_invivo_PB1_2_Motif_22+IAV_invivo_PB1_2_Motif_22]”, which “pull-down binding Z-score” value is on record?
A: -0.501

Q: “CACCACUUAACCGAAAUUAUGUCUUUACUGGUUAUCGUGUAACUAAAAACAGUAAAGUACAAAUAGGAGAGUACACCUUUGAAAAAGGUGACUAUGGUG” was tested. Which “pull-down binding Z-score” value did it give?
A: -0.419

Q: With “CACCAUCUGGUG [DMSMaPseq_invitro_SARS-CoV-2_Motif_188]” as the sequence, how does the “pull-down binding Z-score” value read?
A: -0.158

Q: With “CACCCGCGAAGAAGCUAUAAGACAUGUACGUGCAUGGAUUGGCUUCGAUGUCGAGGGGUG” as the sequence, how does the “pull-down binding Z-score” value read?
A: -0.23

Q: How did the “pull-down binding Z-score” value turn out when “CACGUCCAACUCAGUUUGCCUGUUUUACAGGUUCGCGACGUG” was run?
A: -0.0582

Q: CACUAAAAAGUGGAAAUACCCACAAGUUAAUG was tested. Which “pull-down binding Z-score” value did it give?
A: -0.22

Q: For “CACUCAAAGGCGGUGCACCAACAAAGGUUACUUUUGGUGAUGACACUGUGAUAGAAGUG [DMSMaPseq_invitro_SARS-CoV-2_Motif_50]”, which “pull-down binding Z-score” value is on record?
A: -0.205

Q: With “CACUGUACAGUCUAAAAUGUCAGAUGUAAAGUG [DMSMaPseq_invitro_SARS-CoV-2_Motif_208]” as the sequence, how does the “pull-down binding Z-score” value read?
A: -0.0983

Q: How did the “pull-down binding Z-score” value turn out when “CACUUAUCUUAGCCUACUGUAAUAAGACAGUAGGUGAGUUAGGUG” was run?
A: -0.273

Q: For CACUUCUUUCUUUGAGAGAAGUG, which “pull-down binding Z-score” value is on record?
A: -0.228

Q: Which “pull-down binding Z-score” value does the source give for CAGACAACACAUUUGUGUCUG here?
A: -0.67

Q: “CAGACUUUAUGAGUGUCUCUAUAGAAAUAGAGAUGUUGACACAGACUUUGUGAAUGAGUUUUACGCAUAUUUGCGUAAACAUUUCUCAAUGAUGAUACUCUCUG” was tested. Which “pull-down binding Z-score” value did it give?
A: -0.449

Q: With “CAGACUUUGUGAAUGAGUUUUACGCAUAUUUGCGUAAACAUUUCUCAAUGAUGAUACUCUCUG” as the sequence, how does the “pull-down binding Z-score” value read?
A: -0.222

Source: the supplement of paper PMC11865577
